Key:
[1] = molecular target: the molecule itself; test: analytical ultracentrifugation of the individually expressed protein (monomer plus higher aggregates seen)
Method: To check the oligomeric status of the purified designed enzymes, their size profiles was measured by analytical ultracentrifugation (FIG. 6). In the case of individually-expressed A1, A2, B3 and B4 proteins, the appearance of the expected monomeric enzyme was observed. However, higher molecular weight aggregates were also detected, including trimers and tetramers (FIG. 6B; only KTG-A2 and QAN-B3 are shown, although similar results were obtained with the other designs). Therefore the designed enzymes were indeed unable to homodimerise, and this may have affected their stability and aggregation properties during purification.

[2] = molecular target: T1, QAN-B3 (QAN with K7E, F54G, L58M, K96E), His tag removed, co-expressed from pCDFDuet1
T1 chain: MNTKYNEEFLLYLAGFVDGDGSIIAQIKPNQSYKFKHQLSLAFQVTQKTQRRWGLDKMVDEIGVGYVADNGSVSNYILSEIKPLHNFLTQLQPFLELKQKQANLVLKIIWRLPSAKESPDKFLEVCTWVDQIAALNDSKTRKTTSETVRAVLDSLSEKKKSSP

[3] = molecular target: T2, KTG-B3 (KTG with the B3 interface: K7E, F54G, L58M, K96E)
T2 chain: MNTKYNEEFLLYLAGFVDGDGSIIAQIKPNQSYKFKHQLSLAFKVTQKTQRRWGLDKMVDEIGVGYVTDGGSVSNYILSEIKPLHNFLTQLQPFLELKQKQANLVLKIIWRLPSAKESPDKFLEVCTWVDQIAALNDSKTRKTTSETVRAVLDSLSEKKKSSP

M3 E8K K96E = molecular target: T3, M3 E8K K96E
T3 chain: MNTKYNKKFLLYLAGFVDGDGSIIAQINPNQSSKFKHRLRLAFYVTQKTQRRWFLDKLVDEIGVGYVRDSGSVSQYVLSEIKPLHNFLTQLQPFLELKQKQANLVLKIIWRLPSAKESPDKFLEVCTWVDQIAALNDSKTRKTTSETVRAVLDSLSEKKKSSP

[4] = molecular target: T4, R51D RAG1.10.3 cutter (M3 R51D)
T4 chain: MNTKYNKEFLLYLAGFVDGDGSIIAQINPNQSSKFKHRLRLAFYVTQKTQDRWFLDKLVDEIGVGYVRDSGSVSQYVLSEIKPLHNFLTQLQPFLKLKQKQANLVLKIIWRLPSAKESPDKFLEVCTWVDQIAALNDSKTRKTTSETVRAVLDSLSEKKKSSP

M3 K7E E61R = molecular target: T5, M3 K7E E61R
T5 chain: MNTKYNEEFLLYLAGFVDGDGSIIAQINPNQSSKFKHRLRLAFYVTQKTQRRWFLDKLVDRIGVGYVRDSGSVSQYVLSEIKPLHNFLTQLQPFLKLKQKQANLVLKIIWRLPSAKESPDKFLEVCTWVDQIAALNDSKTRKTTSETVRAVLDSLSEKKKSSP

M3 E8K E61R = molecular target: T6, M3 E8K E61R
T6 chain: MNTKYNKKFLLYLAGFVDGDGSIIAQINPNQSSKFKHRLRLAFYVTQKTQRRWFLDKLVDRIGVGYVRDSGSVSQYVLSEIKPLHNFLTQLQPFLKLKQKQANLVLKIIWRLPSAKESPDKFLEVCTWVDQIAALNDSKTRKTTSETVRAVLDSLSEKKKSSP

[5] = molecular target: T7, D137R RAG1.10.3 cutter (M3 D137R)
T7 chain: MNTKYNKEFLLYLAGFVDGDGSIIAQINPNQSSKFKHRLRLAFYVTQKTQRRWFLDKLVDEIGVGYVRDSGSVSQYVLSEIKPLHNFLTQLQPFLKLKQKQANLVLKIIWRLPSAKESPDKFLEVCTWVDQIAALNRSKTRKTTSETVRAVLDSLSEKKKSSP

M3 K7E K96E = molecular target: T8, M3 K7E K96E
T8 chain: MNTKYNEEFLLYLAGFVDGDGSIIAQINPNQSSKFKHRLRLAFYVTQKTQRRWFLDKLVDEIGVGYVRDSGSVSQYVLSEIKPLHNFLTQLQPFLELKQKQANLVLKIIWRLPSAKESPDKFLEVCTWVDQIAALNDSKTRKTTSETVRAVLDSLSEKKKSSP

B1: QAN-B4 (QAN with the B4 interface: B3 mutations K7E, F54G, L58M, K96E plus Glycine at position 97) (enzyme)
chain: MANTKYNEEFLLYLAGFVDGDGSIIAQIKPNQSYKFKHQLSLTFQVTQKTQRRWGLDKMVDEIGVGYVADNGSVSNYILSEIKPLHNFLTQLQPFLEGKQKQANLVLKIIEQLPSAKESPDKFLEVCTWVDQIAALNDSKTRKTTSETVRAVLDSLSEKKKSSPAAALEHHHHHH
notes: Purified by His tag when expressed alone
binding result [1]: no binding

B2: D137R RAG1.10.3 cutter (M3 D137R) (protein)
chain: MNTKYNKEFLLYLAGFVDGDGSIIAQINPNQSSKFKHRLRLAFYVTQKTQRRWFLDKLVDEIGVGYVRDSGSVSQYVLSEIKPLHNFLTQLQPFLKLKQKQANLVLKIIWRLPSAKESPDKFLEVCTWVDQIAALNRSKTRKTTSETVRAVLDSLSEKKKSSP
cleavage of the palindromic RAG1.10.3 target, direct repeat recombination (LacZ) assay in yeast: no cleavage of the RAG1.10.2 and RAG1.10.3 targets was visible

B3: KTG-A2 (KTG with K7R, E8R, F54W, E61R, K96R, L97F) (enzyme)
chain: MNTKYNRRFLLYLAGFVDGDGSIIAQIKPNQSYKFKHQLSLAFKVTQKTQRRWWLDKLVDRIGVGYVTDGGSVSNYILSEIKPLHNFLTQLQPFLRFKQKQANLVLKIIWRLPSAKESPDKFLEVCTWVDQIAALNDSKTRKTTSETVRAVLDSLSEKKKSSP
notes: Designed monomer; Expressed with a His tag from pET-series plasmid pCLS1211
in vitro cleavage of linearized plasmid DNA targets (agarose gel) [2]: clear specific cleavage of the heterodimer DNA target (gtt/agg) and barely of the homodimeric targets (cct/agg and gtt/aac; FIG. 7A) was observed | binding result [1]: no binding

B4: QAN-A1 (QAN with the A1 interface: K7R, E8R, E61R, K96R, L97F; Phe kept at position 54) (enzyme)
chain: MNTKYNRRFLLYLAGFVDGDGSIIAQIKPNQSYKFKHQLSLAFQVTQKTQRRWFLDKLVDRIGVGYVADNGSVSNYILSEIKPLHNFLTQLQPFLRFKQKQANLVLKIIWRLPSAKESPDKFLEVCTWVDQIAALNDSKTRKTTSETVRAVLDSLSEKKKSSP
notes: as for B1
in vitro cleavage of linearized plasmid DNA targets (agarose gel) [3]: specific cleavage of the heterodimer, but at reduced level compared to the KTG-A2/QAN-B3 combination | binding result [1]: no binding

B5: QAN-B3 (QAN with K7E, F54G, L58M, K96E), individually expressed and purified (enzyme)
chain: MNTKYNEEFLLYLAGFVDGDGSIIAQIKPNQSYKFKHQLSLAFQVTQKTQRRWGLDKMVDEIGVGYVADNGSVSNYILSEIKPLHNFLTQLQPFLELKQKQANLVLKIIWRLPSAKESPDKFLEVCTWVDQIAALNDSKTRKTTSETVRAVLDSLSEKKKSSP
notes: Designed monomer; His-tagged form from pET-series plasmid pCLS1214, purified on a nickel column
binding result [1]: no binding

B6: KTG-B3 (KTG with the B3 interface: K7E, F54G, L58M, K96E) (enzyme)
chain: MNTKYNEEFLLYLAGFVDGDGSIIAQIKPNQSYKFKHQLSLAFKVTQKTQRRWGLDKMVDEIGVGYVTDGGSVSNYILSEIKPLHNFLTQLQPFLELKQKQANLVLKIIWRLPSAKESPDKFLEVCTWVDQIAALNDSKTRKTTSETVRAVLDSLSEKKKSSP
notes: as for B1
binding result [1]: no binding

B7: M2 K7E E61R (protein)
chain: MNTKYNEEFLLYLAGFVDGDGSIIAQIKPRQSNKFKHQLSLAFAVTQKTQRRWFLDKLVDRIGVGYVYDSGSVSDYRLSEIKPLHNFLTQLQPFLKLKQKQANLVLKIIWRLPSAKESPDKFLEVCTWVDQIAALNDSKTRKTTSETVRAVLDSLSEKKKSSP
cleavage of the RAG1.10 target, yeast screening assay (OH1) (M3 E8K K96E): They have a strong cleavage activity toward the RAG1.10 target equivalent to the M2/M3 heterodimer activity, while they display almost non detectable homodimeric activities.

B8: D137R RAG1.10.2 cutter (M2 D137R) (protein)
chain: MNTKYNKEFLLYLAGFVDGDGSIIAQIKPRQSNKFKHQLSLAFAVTQKTQRRWFLDKLVDEIGVGYVYDSGSVSDYRLSEIKPLHNFLTQLQPFLKLKQKQANLVLKIIWRLPSAKESPDKFLEVCTWVDQIAALNRSKTRKTTSETVRAVLDSLSEKKKSSP
cleavage of the RAG1.10 target, direct repeat recombination (LacZ) assay in yeast [4]: leads also to the formation of an obligatory heterodimer, which is yet less active than the precedent one on the RAG1.10 target

B9: M2 E8K K96E (protein)
chain: MNTKYNKKFLLYLAGFVDGDGSIIAQIKPRQSNKFKHQLSLAFAVTQKTQRRWFLDKLVDEIGVGYVYDSGSVSDYRLSEIKPLHNFLTQLQPFLELKQKQANLVLKIIWRLPSAKESPDKFLEVCTWVDQIAALNDSKTRKTTSETVRAVLDSLSEKKKSSP
cleavage of the RAG1.10 target, yeast screening assay (OH4) (M3 K7E E61R): They have a strong cleavage activity toward the RAG1.10 target equivalent to the M2/M3 heterodimer activity, while they display almost non detectable homodimeric activities.

B10: M2 K7E K96E (protein)
chain: MNTKYNEEFLLYLAGFVDGDGSIIAQIKPRQSNKFKHQLSLAFAVTQKTQRRWFLDKLVDEIGVGYVYDSGSVSDYRLSEIKPLHNFLTQLQPFLELKQKQANLVLKIIWRLPSAKESPDKFLEVCTWVDQIAALNDSKTRKTTSETVRAVLDSLSEKKKSSP
cleavage of the RAG1.10 target, yeast screening assay (OH3) (M3 E8K E61R): They have a strong cleavage activity toward the RAG1.10 target equivalent to the M2/M3 heterodimer activity, while they display almost non detectable homodimeric activities.

B11: R51D RAG1.10.2 cutter (M2 R51D) (protein)
chain: MNTKYNKEFLLYLAGFVDGDGSIIAQIKPRQSNKFKHQLSLAFAVTQKTQDRWFLDKLVDEIGVGYVYDSGSVSDYRLSEIKPLHNFLTQLQPFLKLKQKQANLVLKIIWRLPSAKESPDKFLEVCTWVDQIAALNDSKTRKTTSETVRAVLDSLSEKKKSSP
cleavage of the palindromic RAG1.10.2 target, direct repeat recombination (LacZ) assay in yeast: no cleavage of the RAG1.10.2 and RAG1.10.3 targets was visible | cleavage of the RAG1.10 target, direct repeat recombination (LacZ) assay in yeast [5]: resulted in an efficient cleavage of the RAG1.10 target while no cleavage of the RAG1.10.2 and RAG1.10.3 targets was visible

B12: M2 E8K E61R (protein)
chain: MNTKYNKKFLLYLAGFVDGDGSIIAQIKPRQSNKFKHQLSLAFAVTQKTQRRWFLDKLVDRIGVGYVYDSGSVSDYRLSEIKPLHNFLTQLQPFLKLKQKQANLVLKIIWRLPSAKESPDKFLEVCTWVDQIAALNDSKTRKTTSETVRAVLDSLSEKKKSSP
cleavage of the RAG1.10 target, yeast screening assay (OH2) (M3 K7E K96E): They have a strong cleavage activity toward the RAG1.10 target equivalent to the M2/M3 heterodimer activity, while they display almost non detectable homodimeric activities.

— patent publication US20100167357A1 (CELLECTIS, published 2010)
